Assay results from paper PMC12307675.

Target: recombinant SARS-CoV-2 spike protein (SARS-CoV-2) (UniProt P0DTC2)
Experiment: SPR

Substance	Kd [nM]
acidic C-tail-deleted HMGB1 (HMGB1-ΔC, aa 1–186), 6x His-tagged (from UniProt P09429 1-186) (domain or fragment)	1380
full-length HMGB1 (HMGB1-WT), 6x His-tagged (from UniProt P09429 1-215) (natural protein)	3550
HMGB1-A box (aa 1–79), 6x His-tagged (from UniProt P09429 1-79) (domain or fragment)	6100
HMGB1-B box (aa 89–162), 6x His-tagged (from UniProt P09429 89-162) (domain or fragment)	1020
